Assays:
hMEX3B KH1/2 WT [1] = target: T1, hMEX3B KH1/2 WT (Homo sapiens, UniProt Q6ZN04 56-230); assay: ITC; N 0.84; text says larger than 1.11 uM; ITC at 298 K, protein injected into RNA, both dialyzed in the same buffer (composition not in the material; purification SEC buffer 2 M NaCl, 20 mM Tris pH 7.5); NMR at 298 K, 0.1 mM protein; conditions: protein: recombinant; tags: 6xHis-SUMO cleaved (ULP1)
T1 sequence: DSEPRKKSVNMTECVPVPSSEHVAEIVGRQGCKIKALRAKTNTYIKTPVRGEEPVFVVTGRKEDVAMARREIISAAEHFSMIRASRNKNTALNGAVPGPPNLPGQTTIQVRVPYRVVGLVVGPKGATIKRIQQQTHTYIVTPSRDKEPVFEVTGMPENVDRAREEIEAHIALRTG

hMEX3B KH2 WT [2] = target: T2, hMEX3B KH2 WT (Homo sapiens, UniProt Q6ZN04 156-230); assay: ITC; N 1.02; ITC at 298 K, protein injected into RNA, both dialyzed in the same buffer (composition not in the material; purification SEC buffer 2 M NaCl, 20 mM Tris pH 7.5); NMR at 298 K, 0.1 mM protein; conditions: protein: recombinant; tags: modified pET28a without thrombin site (His tag likely retained)
T2 sequence: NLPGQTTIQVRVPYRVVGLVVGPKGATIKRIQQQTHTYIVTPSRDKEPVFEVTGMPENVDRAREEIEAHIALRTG

hMEX3B KH1 WT [3] = target: T3, hMEX3B KH1 WT (Homo sapiens, UniProt Q6ZN04 56-144); assay: ITC; ITC at 298 K, protein injected into RNA, both dialyzed in the same buffer (composition not in the material; purification SEC buffer 2 M NaCl, 20 mM Tris pH 7.5); NMR at 298 K, 0.1 mM protein; conditions: protein: recombinant; tags: modified pET28a without thrombin site (His tag likely retained)
T3 sequence: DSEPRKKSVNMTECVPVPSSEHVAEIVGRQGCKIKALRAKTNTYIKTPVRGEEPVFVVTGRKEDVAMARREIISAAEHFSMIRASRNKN

hMEX3B KH2 WT [4] = target: T2, hMEX3B KH2 WT; assay: as above; conditions: protein: recombinant; tags: modified pET28a without thrombin site (His tag likely retained)
hMEX3B KH1/2 WT [5] = target: T1, hMEX3B KH1/2 WT; assay: ITC; N 0.91; ITC at 298 K, protein injected into RNA, both dialyzed in the same buffer (composition not in the material; purification SEC buffer 2 M NaCl, 20 mM Tris pH 7.5); NMR at 298 K, 0.1 mM protein; conditions: protein: recombinant; tags: 6xHis-SUMO cleaved (ULP1)
hMEX3B KH1 WT [6] = target: T3, hMEX3B KH1 WT; assay: ITC; N 0.89; ITC at 298 K, protein injected into RNA, both dialyzed in the same buffer (composition not in the material; purification SEC buffer 2 M NaCl, 20 mM Tris pH 7.5); NMR at 298 K, 0.1 mM protein; conditions: protein: recombinant; tags: modified pET28a without thrombin site (His tag likely retained)
hMEX3B KH1/2 WT [7] = target: T1, hMEX3B KH1/2 WT; assay: as above; conditions: protein: recombinant; tags: 6xHis-SUMO cleaved (ULP1)
hMEX3B KH1/2 WT [8] = target: T1, hMEX3B KH1/2 WT; assay: ITC; N 0.94; ITC at 298 K, protein injected into RNA, both dialyzed in the same buffer (composition not in the material; purification SEC buffer 2 M NaCl, 20 mM Tris pH 7.5); NMR at 298 K, 0.1 mM protein; conditions: protein: recombinant; tags: 6xHis-SUMO cleaved (ULP1)
hMEX3B KH1/2 (TR4A) = target: T4, hMEX3B KH1/2 (TR4A) (Homo sapiens, UniProt Q6ZN04 56-230, T102A;R105A;T196A;R199A); assay: ITC; ITC at 298 K, protein injected into RNA, both dialyzed in the same buffer (composition not in the material; purification SEC buffer 2 M NaCl, 20 mM Tris pH 7.5); NMR at 298 K, 0.1 mM protein; conditions: protein: recombinant; tags: 6xHis-SUMO cleaved (ULP1)
T4 sequence: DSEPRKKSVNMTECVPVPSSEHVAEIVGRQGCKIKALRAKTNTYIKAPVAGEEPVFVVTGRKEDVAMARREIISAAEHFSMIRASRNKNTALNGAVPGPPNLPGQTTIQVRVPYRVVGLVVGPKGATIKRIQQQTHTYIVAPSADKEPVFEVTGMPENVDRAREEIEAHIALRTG

hMEX3B KH1/2 (G4D) = target: T5, hMEX3B KH1/2 (G4D) (Homo sapiens, UniProt Q6ZN04 56-230, G83D;G86D;G177D;G180D); assay: as above; conditions: protein: recombinant; tags: 6xHis-SUMO cleaved (ULP1)
T5 sequence: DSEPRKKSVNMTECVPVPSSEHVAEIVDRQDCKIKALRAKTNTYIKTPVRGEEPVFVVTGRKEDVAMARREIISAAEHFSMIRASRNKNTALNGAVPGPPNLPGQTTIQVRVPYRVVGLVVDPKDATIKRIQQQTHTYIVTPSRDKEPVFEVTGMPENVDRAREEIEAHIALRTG

hMEX3B KH1/2 (G83D/G86D) = target: T6, hMEX3B KH1/2 (G83D/G86D) (Homo sapiens, UniProt Q6ZN04 56-230, G83D;G86D); assay: ITC; N 0.67; ITC at 298 K, protein injected into RNA, both dialyzed in the same buffer (composition not in the material; purification SEC buffer 2 M NaCl, 20 mM Tris pH 7.5); NMR at 298 K, 0.1 mM protein; conditions: protein: recombinant; tags: 6xHis-SUMO cleaved (ULP1)
T6 sequence: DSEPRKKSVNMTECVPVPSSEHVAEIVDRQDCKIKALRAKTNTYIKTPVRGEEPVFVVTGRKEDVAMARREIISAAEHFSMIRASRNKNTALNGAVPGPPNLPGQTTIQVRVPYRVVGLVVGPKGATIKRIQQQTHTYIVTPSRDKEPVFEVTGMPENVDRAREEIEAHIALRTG

[9] = target: T7, hMEX3B KH1/2 (T196A/R199A) (Homo sapiens, UniProt Q6ZN04 56-230, T196A;R199A); assay: ITC; N 0.68; ITC at 298 K, protein injected into RNA, both dialyzed in the same buffer (composition not in the material; purification SEC buffer 2 M NaCl, 20 mM Tris pH 7.5); NMR at 298 K, 0.1 mM protein; conditions: protein: recombinant; tags: 6xHis-SUMO cleaved (ULP1)
T7 sequence: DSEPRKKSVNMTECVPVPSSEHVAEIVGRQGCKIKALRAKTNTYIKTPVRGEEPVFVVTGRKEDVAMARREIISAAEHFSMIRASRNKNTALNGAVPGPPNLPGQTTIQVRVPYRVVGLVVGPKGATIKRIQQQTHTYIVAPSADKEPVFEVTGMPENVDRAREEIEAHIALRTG

[10] = target: T8, hMEX3B KH1/2 (T102A/R105A) (Homo sapiens, UniProt Q6ZN04 56-230, T102A;R105A); assay: ITC; N 0.79; ITC at 298 K, protein injected into RNA, both dialyzed in the same buffer (composition not in the material; purification SEC buffer 2 M NaCl, 20 mM Tris pH 7.5); NMR at 298 K, 0.1 mM protein; conditions: protein: recombinant; tags: 6xHis-SUMO cleaved (ULP1)
T8 sequence: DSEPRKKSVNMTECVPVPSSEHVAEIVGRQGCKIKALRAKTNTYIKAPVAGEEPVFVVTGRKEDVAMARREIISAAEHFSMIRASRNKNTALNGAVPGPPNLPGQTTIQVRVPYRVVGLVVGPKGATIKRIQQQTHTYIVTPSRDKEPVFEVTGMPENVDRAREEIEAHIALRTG

[11] = target: T9, hMEX3B KH1/2 (G177D/G180D) (Homo sapiens, UniProt Q6ZN04 56-230, G177D;G180D); assay: ITC; N 0.89; ITC at 298 K, protein injected into RNA, both dialyzed in the same buffer (composition not in the material; purification SEC buffer 2 M NaCl, 20 mM Tris pH 7.5); NMR at 298 K, 0.1 mM protein; conditions: protein: recombinant; tags: 6xHis-SUMO cleaved (ULP1)
T9 sequence: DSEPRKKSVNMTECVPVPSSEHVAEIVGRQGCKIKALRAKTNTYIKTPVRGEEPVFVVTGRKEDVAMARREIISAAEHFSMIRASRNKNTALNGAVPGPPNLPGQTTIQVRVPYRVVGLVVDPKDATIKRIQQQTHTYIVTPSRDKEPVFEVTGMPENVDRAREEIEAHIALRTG

hMEX3B KH2 WT [12] = target: T2, hMEX3B KH2 WT; assay: ITC; N 1.79; ITC at 298 K, protein injected into RNA, both dialyzed in the same buffer (composition not in the material; purification SEC buffer 2 M NaCl, 20 mM Tris pH 7.5); NMR at 298 K, 0.1 mM protein; conditions: protein: recombinant; tags: modified pET28a without thrombin site (His tag likely retained)
hMEX3B KH1 WT [13] = target: T3, hMEX3B KH1 WT; assay: ITC; N 1.91; ITC at 298 K, protein injected into RNA, both dialyzed in the same buffer (composition not in the material; purification SEC buffer 2 M NaCl, 20 mM Tris pH 7.5); NMR at 298 K, 0.1 mM protein; conditions: protein: recombinant; tags: modified pET28a without thrombin site (His tag likely retained)
hMEX3B KH1/2 WT [14] = target: T1, hMEX3B KH1/2 WT; assay: ITC; ITC at 298 K, protein injected into RNA, both dialyzed in the same buffer (composition not in the material; purification SEC buffer 2 M NaCl, 20 mM Tris pH 7.5); NMR at 298 K, 0.1 mM protein; conditions: protein: recombinant; tags: 6xHis-SUMO cleaved (ULP1)
hMEX3B KH1/2 WT [15] = target: T1, hMEX3B KH1/2 WT; assay: ITC; N 0.96; ITC at 298 K, protein injected into RNA, both dialyzed in the same buffer (composition not in the material; purification SEC buffer 2 M NaCl, 20 mM Tris pH 7.5); NMR at 298 K, 0.1 mM protein; conditions: protein: recombinant; tags: 6xHis-SUMO cleaved (ULP1)

B1: switched 12-nt RNA (ssRNA)
RNA: UGUAACCUGAGC
Kd (hMEX3B KH1/2 WT [1]): > 1.11 µM

B2: 6-nt RNA CUGAGC (ssRNA)
RNA: CUGAGC
Kd (hMEX3B KH2 WT [2]): 9.57 ± 0.99 µM

B3: C6 RNA (ssRNA)
RNA: CCCCCC
binding result (hMEX3B KH1 WT [3]): no binding
binding result (hMEX3B KH2 WT [4]): no binding

B4: 12-nt RNA A4C (ssRNA)
RNA: CUGCGCUGUAAC
Kd (hMEX3B KH1/2 WT [5]): 2.1 ± 0.31 µM

B5: 6-nt RNA UGUAAC (ssRNA)
RNA: UGUAAC
Kd (hMEX3B KH1 WT [6]): 10.3 ± 0.61 µM

B6: 12-nt RNA A10C (ssRNA)
RNA: CUGAGCUGUCAC
Kd (hMEX3B KH1/2 WT [7]): 1.58 ± 0.24 µM

B7: 12-nt RNA A11C (ssRNA)
RNA: CUGAGCUGUACC
Kd (hMEX3B KH1/2 WT [8]): 0.89 ± 0.09 µM

B8: 12-nt RNA (ssRNA)
RNA: CUGAGCUGUAAC
binding result (hMEX3B KH1/2 (TR4A)): no binding
binding result (hMEX3B KH1/2 (G4D)): no binding
Kd (hMEX3B KH1/2 (G83D/G86D)): 10.4 ± 1.29 µM
Kd [9]: 5.98 ± 0.59 µM
Kd [10]: 2.08 ± 0.29 µM
Kd [11]: 7.42 ± 1.32 µM
Kd (hMEX3B KH1/2 WT [5]): 0.0436 ± 0.00763 µM
Kd (hMEX3B KH2 WT [12]): 21.7 ± 6.87 µM
Kd (hMEX3B KH1 WT [13]): 26.2 ± 7.4 µM

B9: C12 RNA (ssRNA)
RNA: CCCCCCCCCCCC
binding result (hMEX3B KH1/2 WT [14]): no binding

B10: 12-nt RNA U2C (ssRNA)
RNA: CCGAGCUGUAAC
Kd (hMEX3B KH1/2 WT [15]): 0.72 ± 0.09 µM
